In experiment [1] the target is T1, human claudin 18A2 (CLD18A2) (human).
T1 construct: also called CLD18.2; CLDN18A2
The experiment is described as follows: flow cytometry, scFv_Fc on HEK293 cells stably transfected with human CLD18A2. The procedure:
Binding of anti-Claudin 18A2 scFv_Fc fusion antibody to HEK293 cells stably transfected with CLD18A2 was determined by flow cytometry. Experimental data was analyzed using GraphPad Prism and Guava easyCyte™ HT System instrument as described in Example 1 to obtain EC50 value.

For experiment [2], the target named is T1, human claudin 18A2 (CLD18A2). The experiment in a line: flow cytometry, hybridoma supernatant on HEK293-CLD18A2 against HEK293-CLD18A1. From the text:
(§1) Individual cells were screened for anti-CLD18A2 monoclonal antibody by flow cytometry, and HEK293 cells (HEK-CLD18A2) stably expressing human CLD18A2 were used for primary screening by flow cytometry using a Guava easyCyte™ HT System instrument. The binding of the antibody to human CLD18A1 and CLD18A2 transformants was then compared by flow cytometry. The instrument used was the Guava easyCyte™ HT System.
(§2) After multiple rounds of preparation and screening of hybridomas, the inventors found several antibodies with relatively ideal binding properties.
On the technique in general: Flow cytometry measures light scatter and fluorescence of single cells or particles in a stream.

Experiment [3] has as its target T2, human claudin 18A1 (CLD18A1) (human, UniProt P56856 1-261).
T2 construct: also called CLD18.1; claudin 18 splice variant 1
T2 sequence: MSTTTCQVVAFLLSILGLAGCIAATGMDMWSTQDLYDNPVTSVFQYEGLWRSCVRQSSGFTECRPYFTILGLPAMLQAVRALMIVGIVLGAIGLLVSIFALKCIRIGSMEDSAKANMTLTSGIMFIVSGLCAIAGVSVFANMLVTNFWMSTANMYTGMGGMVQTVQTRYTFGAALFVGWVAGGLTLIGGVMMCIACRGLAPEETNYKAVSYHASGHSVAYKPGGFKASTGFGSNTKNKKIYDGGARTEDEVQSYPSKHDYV
The experiment in a line: flow cytometry, hybridoma supernatant on HEK293 cells stably transfected with human CLD18A1.
Source text: as §1, §2

Experiment [4] has as its target T1, human claudin 18A2 (CLD18A2). The experiment in a line: cell-based or functional assay.

B1: 2B1 scFv_Fc fusion antibody (scFv of 2B1 fused to human IgG1 Fc portion) (Fc fusion)
scFv: QVQLQQSGAELARPGASVKMSCKASGYTFTSYTMHWVKQRPGQGLEWIGYINPSSGYTNYNQKFKDKATLTADKSSSTAYMQLSSLTSEDSAVYYCARIYYGNSFAYWGQGTTVTVSSGGGGSGGGGSGGGGSDIVMTQSPSSLTVTAGEKVTMSCKSSQSLLNSGNQKNYLTWYQQKPGQPPKLLIYWASTRESGVPDRFTGSGSGTDFTLTISSVQAEDLAVYYCQNDYSYPLTFGAGTKLELKR
notes: also called murine anti-2B1 ScFv; not shown: human IgG1 Fc portion
Broadly, the EC50 is the midpoint of the concentration-response curve. A low value points to higher potency in that assay. On to B1, for which the EC50 in experiment [1] was 3.56 nM.

B2: 2B1-S54A scFv_Fc fusion antibody (Fc fusion)
scFv: QVQLQQSGAELARPGASVKMSCKASGYTFTSYTMHWVKQRPGQGLEWIGYINPASGYTNYNQKFKDKATLTADKSSSTAYMQLSSLTSEDSAVYYCARIYYGNSFAYWGQGTTVTVSSGGGGSGGGGSGGGGSDIVMTQSPSSLTVTAGEKVTMSCKSSQSLLNSGNQKNYLTWYQQKPGQPPKLLIYWASTRESGVPDRFTGSGSGTDFTLTISSVQAEDLAVYYCQNDYSYPLTFGAGTKLELKR
notes: not shown: human IgG1 Fc portion
B2 gave a half-maximal effective concentration (EC50) in experiment [1] of 3.85 nM.

B3: 2B1-N52D scFv_Fc fusion antibody (Fc fusion)
scFv: QVQLQQSGAELARPGASVKMSCKASGYTFTSYTMHWVKQRPGQGLEWIGYIDPSSGYTNYNQKFKDKATLTADKSSSTAYMQLSSLTSEDSAVYYCARIYYGNSFAYWGQGTTVTVSSGGGGSGGGGSGGGGSDIVMTQSPSSLTVTAGEKVTMSCKSSQSLLNSGNQKNYLTWYQQKPGQPPKLLIYWASTRESGVPDRFTGSGSGTDFTLTISSVQAEDLAVYYCQNDYSYPLTFGAGTKLELKR
notes: as for B2
Take B3: in experiment [1], the EC50 was 6.11 nM.

B4: murine monoclonal antibody 8E5 (hybridoma supernatant) (antibody, V domains shown)
VH: DVQLQESGPDLVKPSQSLSLTCTVTGYSITSGYNWHWIRQFPGNKMEWMGYIHYTGSTNYNPSLRSRISITRDTSKNQFFLQLNSVTTDDTATYYCTRIYNGNSFPYWGQGTSVTVSS
VL: DIVMTQSPSSLTVTPGEKVTMTCKSSQSLFNSGNQKNYLTWYQQRPGQPPKMLIYWASTRESGVPDRFTGSGSGTDFTLTISSVQAEDLAVFYCQNAYSFPYTFGGGTKLEIKR
notes: Mouse hybridoma antibody tested as supernatant
Regarding B4, the “fold difference of average fluorescence intensity, CLD18A2 against CLD18A1 cells” value (“fold difference” for short) in experiment [2] was over 5 times. Moreover, the binding result in experiment [3] was “no binding”.

B5: murine monoclonal antibody 3E12 (hybridoma supernatant) (antibody, V domains shown)
VH: QVQLQQSGPELVKPGALVKISCKASGYTFTSYDINWVKQRPGQGLEWIGWIYPGDGSTKYNEKFKGKATLTADKSSSTAYMQLSSLTSENSAVYFCARGGYRYDEAMDYWGQGTTVTVSS
VL: QIVLTQSPAIMSASPGEKVTMTCSASSSISYMHWYQQKPGTSPKRWIYDTSKLASGVPARFSGSGSGTSYSLTISSMEAEDAATYYCHQRSSYPYTFGGGTKLEIKR
notes: as for B4
With B5, the “fold difference” value in experiment [2] was over 5 times. In addition, the binding result in experiment [3] is recorded as “no binding”.

B6: hu2B1-S54A scFv fused to human IgG1 Fc portion (Fc fusion)
scFv: QVQLVQSGAEVKKPGASVKVSCKASGYTFTSYTMHWVRQAPGQGLEWMGYINPASGYTNYNQKFKDRVTMTRDTSTSTAYMELSSLRSEDTAVYYCARIYYGNSFAYWGQGTLVTVSSGGGGSGGGGSGGGGSDIVMTQSPDSLAVSLGERATINCKSSQSLLNSGNQKNYLTWYQQKPGQPPKLLIYWASTRESGVPDRFSGSGSGTDFTLTISSLQAEDVAVYYCQNDYSYPLTFGGGTKVEIKR
notes: also called humanized hu2B1-S54A; not shown: human IgG1 Fc portion
As to B6, in experiment [1], the EC50 was 18.6 nM.

B7: hu8E5 scFv fused to human IgG1 Fc portion (Fc fusion)
scFv: QVQLQESGPGLVKPSQTLSLTCTVSGGSISSGYNWHWIRQPPGKGLEWIGYIHYTGSTNYNPALRSRVTISVDTSKNQFSLKLSSVTAADTAVYYCARIYNGNSFPYWGQGTTVTVSSGGGGSGGGGSGGGGSDIVMTQSPDSLAVSLGERATINCKSSQSLFNSGNQKNYLTWYQQKPGQPPKLLIYWASTRESGVPDRFSGSGSGTDFTLTISSLQAEDVAVYYCQNAYSFPYTFGGGTKLEIKR
notes: also called hu8E5-S62A; not shown: human IgG1 Fc portion
B7 registered a concentration giving a half-maximal response (EC50) in experiment [1] of 107 nM.

B8: hu8E5-2I scFv fused to human IgG1 Fc portion (Fc fusion)
scFv: QVQLQESGPGLIKPSQTLSLTCTVSGGSISSGYNWHWIRQPPGKGLEWIGYIHYTGSTNYNPALRSRVTISVDTSKNQFSLKLSSVTAADTAIYYCARIYNGNSFPYWGQGTTVTVSSGGGGSGGGGSGGGGSDIVMTQSPDSLAVSLGERATINCKSSQSLFNSGNQKNYLTWYQQKPGQPPKLLIYWASTRESGVPDRFSGSGSGTDFTLTISSLQAEDVAVYYCQNAYSFPYTFGGGTKLEIKR
notes: also called mutant hu8E5-2I; not shown: human IgG1 Fc portion
On to B8, for which, in experiment [1], the EC50 was 9.22 nM and the “fold increase of affinity against the parent antibody 8E5” value was 5 fold.

B9: 8E5 scFv_Fc fusion antibody (scFv of 8E5 fused to human IgG1 Fc portion) (Fc fusion)
scFv: DVQLQESGPDLVKPSQSLSLTCTVTGYSITSGYNWHWIRQFPGNKMEWMGYIHYTGSTNYNPSLRSRISITRDTSKNQFFLQLNSVTTDDTATYYCTRIYNGNSFPYWGQGTSVTVSSGGGGSGGGGSGGGGSDIVMTQSPSSLTVTPGEKVTMTCKSSQSLFNSGNQKNYLTWYQQRPGQPPKMLIYWASTRESGVPDRFTGSGSGTDFTLTISSVQAEDLAVFYCQNAYSFPYTFGGGTKLEIKR
notes: also called parent antibody 8E5; not shown: human IgG1 Fc portion
Molecule B9 yielded a concentration for a half-maximal effect (EC50) in experiment [1] of 49.2 nM.

B10: humanized antibody hu2B1-S54A (full antibody) (antibody, human IgG1, kappa, V domains shown)
VH: QVQLVQSGAEVKKPGASVKVSCKASGYTFTSYTMHWVRQAPGQGLEWMGYINPASGYTNYNQKFKDRVTMTRDTSTSTAYMELSSLRSEDTAVYYCARIYYGNSFAYWGQGTLVTVSS
VL: DIVMTQSPDSLAVSLGERATINCKSSQSLLNSGNQKNYLTWYQQKPGQPPKLLIYWASTRESGVPDRFSGSGSGTDFTLTISSLQAEDVAVYYCQNDYSYPLTFGGGTKVEIKR
On to B10, for which, in experiment [4], the “ADCC effect (LDH release), antibody 20 µg/ml, effector-to-target ratio 50:1” value is 62.8%.

B11: humanized antibody hu8E5-2I (full antibody) (antibody, human IgG1, kappa, V domains shown)
VH: QVQLQESGPGLIKPSQTLSLTCTVSGGSISSGYNWHWIRQPPGKGLEWIGYIHYTGSTNYNPALRSRVTISVDTSKNQFSLKLSSVTAADTAIYYCARIYNGNSFPYWGQGTTVTVSS
VL: DIVMTQSPDSLAVSLGERATINCKSSQSLFNSGNQKNYLTWYQQKPGQPPKLLIYWASTRESGVPDRFSGSGSGTDFTLTISSLQAEDVAVYYCQNAYSFPYTFGGGTKLEIKR
With B11, in experiment [4], the “ADCC effect (LDH release), antibody 20 µg/ml, effector-to-target ratio 50:1” value was found to be 72.9%.

B12: murine monoclonal antibody 2B1 (hybridoma supernatant) (antibody, V domains shown)
VH: QVQLQQSGAELARPGASVKMSCKASGYTFTSYTMHWVKQRPGQGLEWIGYINPSSGYTNYNQKFKDKATLTADKSSSTAYMQLSSLTSEDSAVYYCARIYYGNSFAYWGQGTTVTVSS
VL: DIVMTQSPSSLTVTAGEKVTMSCKSSQSLLNSGNQKNYLTWYQQKPGQPPKLLIYWASTRESGVPDRFTGSGSGTDFTLTISSVQAEDLAVYYCQNDYSYPLTFGAGTKLELKR
notes: as for B4
In the case of B12, the “fold difference” value in experiment [2] was over 5 times. Moreover, the binding result in experiment [3] was “no binding”.

B13: murine monoclonal antibody 4A11 (hybridoma supernatant) (antibody, V domains shown)
VH: QIQLVQSGPELKKPGETVKISCKASGYTFTNYGMNWVKQAPGKGLKWMGWINTNTGEPTYAEEFKGRFAFSLETSASTAYLQINNLKNEDTATYFCARFSYGNSFAYWGQGTTVTVSS
VL: DIVMTQSPSSLSVSAGEKVTMSCKSSQSLLNSGNQKNYLAWYQQKPGQPPKLLIYGASTRESGVPDRFTGSGSGTDFTLTISSVQAEDLAVYYCQNDHSYPLTFGAGTKLELKR
notes: Mouse hybridoma antibody tested as supernatant; the latter is used
Take B13: the “fold difference” value in experiment [2] was over 5 times. Also, the binding result in experiment [3] is reported as “no binding”.

Values taken from patent US11111295 (CAFA THERAPEUTICS, dated 2021).
